This assay has as its target T1, anthrax lethal factor (LF) (Bacillus anthracis, strain , UniProt P15917).
T1 construct: source: purified; produced in Dr. Nick Duesbery's lab at Van Andel Research Institute
Put plainly: ELISA. Particulars: both partners purified. Background: ELISA stands for enzyme-linked immunosorbent assay.

T1 sequence (P15917 34-809): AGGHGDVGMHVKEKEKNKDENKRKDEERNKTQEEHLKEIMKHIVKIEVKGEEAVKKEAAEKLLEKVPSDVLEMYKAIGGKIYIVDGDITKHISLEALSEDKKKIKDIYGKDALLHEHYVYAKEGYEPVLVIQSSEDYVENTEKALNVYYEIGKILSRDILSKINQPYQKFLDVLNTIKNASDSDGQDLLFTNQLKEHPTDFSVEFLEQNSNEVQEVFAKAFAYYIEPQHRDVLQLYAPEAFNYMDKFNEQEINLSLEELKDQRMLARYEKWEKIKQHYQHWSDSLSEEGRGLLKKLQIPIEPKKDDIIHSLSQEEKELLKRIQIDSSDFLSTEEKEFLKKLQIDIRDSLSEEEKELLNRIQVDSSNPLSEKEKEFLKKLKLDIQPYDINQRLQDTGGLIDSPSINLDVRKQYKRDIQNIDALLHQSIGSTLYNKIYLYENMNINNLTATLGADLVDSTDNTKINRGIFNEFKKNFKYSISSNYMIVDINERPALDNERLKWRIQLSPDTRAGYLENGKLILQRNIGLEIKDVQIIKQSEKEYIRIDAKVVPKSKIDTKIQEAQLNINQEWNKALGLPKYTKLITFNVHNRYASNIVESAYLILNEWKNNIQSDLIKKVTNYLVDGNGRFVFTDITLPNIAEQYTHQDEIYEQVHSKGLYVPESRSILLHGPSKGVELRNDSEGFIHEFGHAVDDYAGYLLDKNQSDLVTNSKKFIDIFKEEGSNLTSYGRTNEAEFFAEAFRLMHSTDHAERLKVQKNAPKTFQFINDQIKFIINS

B1:  (Fab, V domains shown)
VH: EVQLQQSGAELVKPGASVKLSCTASGFNIKDSYMHWVKQRPEQGLEWIGRIDPANGNTKYDPKFQGKATITVDTSSNTAYLQLSSLTSEDTAVYYCTRLDYWGQGTTLTVS
VL: ENVLTQSPAIMSASLGEKVTMSCRASSSVNYMYWYQQKSDASPKLWIYSTSNLAPGVPARFSGSGSGNSYSLTISSMEGEDAATYYCQQFTSSPSALTFGAGTKLEIK
notes: also called LF8-Fab; chimeric anti-LF Fab
B1 came in with a Ka of 3.46e+07 M⁻¹.
